Experimental data taken from patent US20050142568A1 (published 2005).

T1: GST-CRN-3 (C. elegans, UniProt G5EBX6 1-876)
T1 construct: also called CRN-3 GST-fusion protein; not shown: glutathione S-transferase tag encoded by vector pGEX4T-2
T1 sequence: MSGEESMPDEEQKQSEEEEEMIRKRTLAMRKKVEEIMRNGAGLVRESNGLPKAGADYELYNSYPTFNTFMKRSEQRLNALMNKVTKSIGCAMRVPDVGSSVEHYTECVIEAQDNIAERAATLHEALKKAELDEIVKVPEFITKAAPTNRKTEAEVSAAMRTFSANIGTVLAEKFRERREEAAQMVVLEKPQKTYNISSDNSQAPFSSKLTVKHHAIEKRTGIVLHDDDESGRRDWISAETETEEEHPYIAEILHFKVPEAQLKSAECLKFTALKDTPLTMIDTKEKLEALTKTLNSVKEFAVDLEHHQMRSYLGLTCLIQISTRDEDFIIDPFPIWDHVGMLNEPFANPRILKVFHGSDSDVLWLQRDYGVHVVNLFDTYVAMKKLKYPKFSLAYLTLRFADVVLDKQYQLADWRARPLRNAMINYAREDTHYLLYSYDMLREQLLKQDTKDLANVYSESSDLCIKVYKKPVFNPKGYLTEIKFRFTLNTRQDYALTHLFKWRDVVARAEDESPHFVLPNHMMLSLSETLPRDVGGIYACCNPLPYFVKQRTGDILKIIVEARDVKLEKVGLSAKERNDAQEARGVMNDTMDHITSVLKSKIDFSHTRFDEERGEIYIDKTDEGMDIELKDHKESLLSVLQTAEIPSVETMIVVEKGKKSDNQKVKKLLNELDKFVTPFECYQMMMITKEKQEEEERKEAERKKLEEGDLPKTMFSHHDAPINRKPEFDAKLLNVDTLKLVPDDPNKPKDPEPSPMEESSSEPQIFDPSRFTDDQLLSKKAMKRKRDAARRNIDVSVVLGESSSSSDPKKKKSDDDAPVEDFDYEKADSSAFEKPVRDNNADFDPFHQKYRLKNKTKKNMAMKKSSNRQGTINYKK

T2: ^35S-Methionine labeled CRN-3 (C. elegans, UniProt G5EBX6 1-876)
T2 sequence: T1 sequence

B1: ^35S-Methionine labeled CYP-13 (enzyme)
chain: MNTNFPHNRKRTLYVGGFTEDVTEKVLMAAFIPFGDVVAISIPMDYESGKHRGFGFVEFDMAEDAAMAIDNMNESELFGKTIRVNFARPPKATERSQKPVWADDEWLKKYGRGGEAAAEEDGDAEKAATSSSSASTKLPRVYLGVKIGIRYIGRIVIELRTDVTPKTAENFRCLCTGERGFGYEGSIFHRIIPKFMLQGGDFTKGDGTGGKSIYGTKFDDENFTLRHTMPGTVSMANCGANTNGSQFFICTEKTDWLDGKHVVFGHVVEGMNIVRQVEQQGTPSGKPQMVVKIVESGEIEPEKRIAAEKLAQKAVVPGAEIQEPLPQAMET
notes: also called ^35S-CYP-13; CPY-13
B2: GST-CRN-1 (other, C. elegans, UniProt Q9N3T2 21-382, looked up)
chain: NEMKAFFGRTVAIDASMCLYQFLIAVRQDGSQLQSEDGETTSHLMGMLNRTVRMFENGVKPVYVFDGKPPDMKGGELEKRSERRAEAEKALTEAKEKGDVKEAEKFERRLVKVTKQQNDEAKRLLGLMGIPVVEAPCEAEAQCAHLVKAGKVFGTVTEDMDALTFGSTVLLRHFLAPVAKKIPIKEFNLSLALEEMKLSVEEFIDLCILLGCDYCGTIRGVGPKKAVELIRQHKNIETILENIDQNKYPPPEDWPYKRARELFLNPEVTKPEEVELTWKEADVEGVIQFLCGEKNFNEERIRNALAKLKTSRKSGTQGRIDSFFGNSTKVTCVTAATKRKAEEAEKAKKGAKKGGPPKKRAK
notes: also called CRN-1 GST-fusion protein; not shown: glutathione S-transferase tag encoded by vector pGEX4T-2
B3: ^35S-Methionine labeled CRN-5 (enzyme, C. elegans)
chain: MAGRLREMRCELSFLKNADGSACFSQGATCIWASCSGPGDVHASKASDEAMTLDISYRANCGDNKFNVLNNIIHSTLSNAINLELFPHTTISVTVHGIQDDGSMGAVAINGACFALLDNGMPFETVFCGVLIVRVKDELIIDPTAKQEAASTGRVLFSVCKGSDGHPEVCAMDAIGHWDFIQLEAAWSLAQPSASAIFDFYKTVMKRKLSVDEQ
B4: GST-CRN-5 (other)
chain: B3 chain
notes: also called CRN-5 GST-fusion protein; not shown: GST carrier and the linker of vector pGEX4T-2
B5: ^35S-Methionine labeled CRN-6 (enzyme, C. elegans, UniProt P34508-2 18-373, looked up)
chain: AYQCKDNNGSNVDWFVFYKLPHLWNHPDNVPISNGTGFLYFDVNNKNWKLMPQGMDVENNAVYYTLQQYYNSNMNTTFSYMYNDEWPDSTIWSNSSGHAKGVTVFDQYTGFWMIHSIPKFPSKDMFRFPSNAHYYGQMGICISYNTVSLATIAQQLFYYNTFTYQFNLPQSFANQFPVLSQLKNKEYNKSPPLTSTKVLKSLGGQHFRHFAKTGEWGKDLYSDFVGPTLKSSIKVETWNHQSGDEYNLPSVCDPNHVQSTMSAKYIRLPYAIDYSSYEDHSKFVVAYSESSSKPPIPYVCIGDINRQSHQIHRGGGTMCIYDQETYFQFANIISETVPCTKATAEKVDALANNRYF
modifications: 35S-methionine labelled
B6: ^35S-Methionine labeled NUC-1 (enzyme, C. elegans, UniProt Q17778 22-375, looked up)
chain: AFSCKDQSGNDVDWFAVYKMPIEKDDGSVTGLAGGVAWYYVDVNKKGTLTPSAKTLDDNDQAIAYTLQQYYDKQNDKTIFHVMYNDEPWGSKSTSGIKLEEILSNRVYSNYTHEDDSTSTAFGHTKGTIFFDGTSGVWLVHSVPLFPNPTKYEYPVSGHDYGQTMLCMTFKYAQLKSIGTQLFFNRPNIYSSNLPTNMAADNADLAKAIAGQYQKGQPFQSVIELETMAGYSFTNFAKSKEFNADLYDTLVAPTLKTDLVVETWRRGSEIPLDCKLTYHANDALSIHVGSTTAFSYTKDHSKMAHSADMTKPWVCIGDINRMTSQYVRGGGTTCISSSFLWKAYSVIATQNNCA
modifications: 35S-methionine labelled
B7: GST-NUC-1 (other, C. elegans, UniProt Q17778 22-375, looked up)
chain: B6 chain
notes: also called NUC-1 GST-fusion protein; not shown: glutathione S-transferase tag encoded by vector pGEX4T-2
B8: GST-CRN-4 (other, C. elegans, UniProt Q10905 1-298, looked up)
chain: MAYQHCPFDTLLILDFETTSDAANQDYPCEVIQFAIVAYDVPNDKIREDISFNKYVKPVLNRTLTKNCVDFTGIPQRSIDTADTFDVVYEQFQQWLITLGLEEGKFAFVCDSRQDLWRIAQYQMKLSNIQMPAFFRQYINLYKIFTNEMDRMGPKELSATTNIGKMNEYYDLPTIGRAHDAMDDCLNIATILQRMINMGAKVTVNELLTCCASWRRQPLVYNKEWRSSFMDAGKIFERVLPLVVTTIRAGDFRLEMYGVCRYCRKGMDVCGTSHQQTPHDLYKNEEDPIHFAKIAGYY
notes: also called CRN-4 GST-fusion protein; not shown: glutathione S-transferase tag encoded by vector pGEX4T-2
B9: ^35S-Methionine labeled CRN-4 (enzyme, C. elegans, UniProt Q10905 1-298, looked up)
chain: B8 chain
modifications: 35S-methionine labelled

Experiments:
Assay in all cases: GST pull-down, 35S-Met protein vs GST fusion; - means no detectable binding (footnote a)
[1] = target: T3, GST (glutathione-S transferase alone) (UniProt P08515 1-218 = GST)
T3 construct: Purified GST used as negative control bait on glutathione sepharose beads; also called OST
T3 sequence (P08515 whole entry): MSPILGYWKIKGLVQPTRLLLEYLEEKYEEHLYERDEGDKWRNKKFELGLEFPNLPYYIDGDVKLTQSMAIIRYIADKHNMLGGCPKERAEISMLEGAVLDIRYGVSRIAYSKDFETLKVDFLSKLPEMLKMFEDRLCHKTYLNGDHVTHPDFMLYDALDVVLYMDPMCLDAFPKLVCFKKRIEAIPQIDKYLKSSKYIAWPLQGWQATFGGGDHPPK
Method: (§1) GST fusion protein pull-down assays were performed as described in J. Parrish, H. Metters, L. Chen, D. Xue, Proc. Natl. Acad. Sci. U.S.A. 97, 11916 (2000). Purified GST or GST-fusion proteins (5 μg each) immobilized on glutathione sepharose beads were incubated with ³⁵S-Methionine labeled proteins at 4° C. for 2 hours. The beads were washed extensively and the bound proteins were resolved on a 12% SDS-PAGE and visualized by autoradiography. [0103] cDNAs corresponding to the ORFs were cloned into the pPD129.36 vector via its Nhe I and Xho I sites or the Xho I site alone. Full-length cDNAs were subcloned into the pGEX4T-2 vector for generating GST fusion proteins and for further protein purification and into the pcDNA3.1 vector for in vitro transcription/translation experiments.
(§2) ^aInteractions were evaluated relative to background binding of ³⁵S-Methionine labeled Luciferase to GST-fusion proteins and ³⁵S-Methionine labeled proteins to GST. “−” indicates no detectable binding, “+” indicates an interaction consistently observed above background levels, and “++” indicates a strong interaction. ^bBecause ³⁵S-Methionine labeled CRN-1 binds GST tightly, it was not possible to evaluate interactions between ³⁵S-CRN-1 and various GST-fusion proteins. ND, not determined.

GST-NUC-1 = target: B7
Method: as §1, §2

GST-CRN-3 = target: T1, GST-CRN-3
Method: as §1, §2

GST-CRN-6 = target: T4, GST-CRN-6 (C. elegans, UniProt P08515 1-218 = GST; P34508 1-373)
T4 construct: Two crn-6 cDNAs (700 bp and 1.1 kb) were isolated; the longer one made the GST fusion; also called CRN-6 GST-fusion protein
Method: as §1, §2

[2] = target: T2, ^35S-Methionine labeled CRN-3
Method: as §1, §2

GST-CRN-1 = target: B2
Method: as §1, §2

[3] = target: B5
Method: as §1, §2

binding result (GST-CRN-3)	binding result (GST-CRN-6)	binding result (GST-CRN-1)	binding result [3]	Binder	further results
no binding	no binding	–	–	B1	binding result [1]: no binding; binding result (GST-NUC-1): no binding
–	–	–	–	B2	binding result [2]: no binding
–	no binding	no binding	–	B3	binding result [1]: no binding
–	–	–	no binding	B4	–
no binding	no binding	no binding	–	B5	–
–	no binding	no binding	–	B6	binding result (GST-NUC-1): no binding
–	–	–	no binding	B7	–
–	–	–	no binding	B8	binding result [2]: no binding
no binding	no binding	–	–	B9	–
